# Experimental data taken from patent US7169891B2, “Human pellino polypeptides” (Immunex Corporation, priority 2000, dated 2007).
# Positions count from the first letter of the chain named. Names and notes keep the numbering of the source. “Also recorded” adds a separate entry of the source. Non-standard residues stand in square brackets, D forms with d. Residues, ends and D or L forms follow the SMILES beside them. *: point of attachment. Nle = CCCC[C@H](N)C(=O)O; Cbz = O=C(OCc1ccccc1)*; CH2F = FC*
# B1: wild-type Pellino-2: wild-type Pellino-2 polypeptide expressed in COS cells; species not stated at the result (protein, UniProt Q9HAT8 1-420, looked up)
# E3 ubiquitin-protein ligase …: MFSPGQEEHCAPNKEPVKYGELVVLGYNGALPNGDRGRRKSRFALYKRPKANGVKPSTVHVISTPQASKAISCKGQHSISYTLSRNQTVVVEYTHDKDTDMFQVGRSTESPIDFVVTDTISGSQNTDEAQITQSTISRFACRIVCDRNEPYTARIFAAGFDSSKNIFLGEKAAKWKNPDGHMDGLTTNGVLVMHPRGGFTEESQPGVWREISVCGDVYTLRETRSAQQRGKLVESETNVLQDGSLIDLCGATLLWRTADGLFHTPTQKHIEALRQEINAARPQCPVGLNTLAFPSINRKEVVEEKQPWAYLSCGHVHGYHNWGHRSDTEANERECPMCRTVGPYVPLWLGCEAGFYVDAGPPTHAFTPCGHVCSEKSAKYWSQIPLPHGTHAFHAACPFCATQLVGEQNCIKLIFQGPID
# B2: 1–250: murine Pellino-1, only amino acids 1–250 present (protein, UniProt Q8C669 1-250, looked up, fragment)
# chain: MFSPDQENHPSKAPVKYGELIVLGYNGSLPNGDRGRRKSRFALFKRPKANGVKPSTVHIACTPQAAKAISNKDQHSISYTLSRAQTVVVEYTHDSNTDMFQIGRSTESPIDFVVTDTVPGSQSNSDTQSVQSTISRFACRIICERSPPFTARIYAAGFDSSKNIFLGEKAAKWKTSDGQMDGLTTNGVLVMHPRNGFTEDSKPGIWREISVCGNVFSLRETRSAQQRGKMVEIETNQLQDGSLIDLCGAT
# B3: Y154A-FLAG: murine Pellino-1-FLAG, Tyr to Ala substitution at residue 154 (protein, UniProt Q8C669 1-418, looked up, variant Y154A)
# E3 ubiquitin-protein ligase …: MFSPDQENHPSKAPVKYGELIVLGYNGSLPNGDRGRRKSRFALFKRPKANGVKPSTVHIACTPQAAKAISNKDQHSISYTLSRAQTVVVEYTHDSNTDMFQIGRSTESPIDFVVTDTVPGSQSNSDTQSVQSTISRFACRIICERSPPFTARIAAAGFDSSKNIFLGEKAAKWKTSDGQMDGLTTNGVLVMHPRNGFTEDSKPGIWREISVCGNVFSLRETRSAQQRGKMVEIETNQLQDGSLIDLCGATLLWRTAEGLSHTPTVKHLEALRQEINAARPQCPVGFNTLAFPSMKRKDVVDEKQPWVYLNCGHVHGYHNWGNKEERDGKDRECPMCRSVGPYVPLWLGCEAGFYVDAGPPTHAFSPCGHVCSEKTTAYWSQIPLPHGTHTFHAACPFCAHQLAGEQGYIRLIFQGPLD
# modifications: FLAG tag
# B4: F158A-FLAG: murine Pellino-1-FLAG, Phe to Ala substitution at residue 158 (protein, UniProt Q8C669 1-418, looked up, variant F158A)
# E3 ubiquitin-protein ligase …: B3 E3 ubiquitin-protein ligase … with A154Y, F158A
# modifications: FLAG tag
# B5: F165L-FLAG: murine Pellino-1-FLAG, Phe to Leu substitution at residue 165 (protein, UniProt Q8C669 1-418, looked up, variant F165L)
# E3 ubiquitin-protein ligase …: B3 E3 ubiquitin-protein ligase … with A154Y, F165L
# modifications: FLAG tag
# B6: dN50-FLAG: murine Pellino-1-FLAG, N-terminal 50 amino acids deleted (protein, UniProt Q8C669 51-418, looked up, fragment)
# chain: GVKPSTVHIACTPQAAKAISNKDQHSISYTLSRAQTVVVEYTHDSNTDMFQIGRSTESPIDFVVTDTVPGSQSNSDTQSVQSTISRFACRIICERSPPFTARIYAAGFDSSKNIFLGEKAAKWKTSDGQMDGLTTNGVLVMHPRNGFTEDSKPGIWREISVCGNVFSLRETRSAQQRGKMVEIETNQLQDGSLIDLCGATLLWRTAEGLSHTPTVKHLEALRQEINAARPQCPVGFNTLAFPSMKRKDVVDEKQPWVYLNCGHVHGYHNWGNKEERDGKDRECPMCRSVGPYVPLWLGCEAGFYVDAGPPTHAFSPCGHVCSEKTTAYWSQIPLPHGTHTFHAACPFCAHQLAGEQGYIRLIFQGPLD
# modifications: FLAG tag
# notes: murine Pellino-1-FLAG, N-terminal 50 amino acids deleted
# B7: dN230-FLAG: murine Pellino-1-FLAG, N-terminal 230 amino acids deleted (protein, UniProt Q8C669 231-418, looked up, fragment)
# chain: VEIETNQLQDGSLIDLCGATLLWRTAEGLSHTPTVKHLEALRQEINAARPQCPVGFNTLAFPSMKRKDVVDEKQPWVYLNCGHVHGYHNWGNKEERDGKDRECPMCRSVGPYVPLWLGCEAGFYVDAGPPTHAFSPCGHVCSEKTTAYWSQIPLPHGTHTFHAACPFCAHQLAGEQGYIRLIFQGPLD
# modifications: FLAG tag
# notes: murine Pellino-1-FLAG, N-terminal 230 amino acids deleted
# B8: dN180-FLAG: murine Pellino-1-FLAG, N-terminal 180 amino acids deleted (protein, UniProt Q8C669 181-418, looked up, fragment)
# chain: DGLTTNGVLVMHPRNGFTEDSKPGIWREISVCGNVFSLRETRSAQQRGKMVEIETNQLQDGSLIDLCGATLLWRTAEGLSHTPTVKHLEALRQEINAARPQCPVGFNTLAFPSMKRKDVVDEKQPWVYLNCGHVHGYHNWGNKEERDGKDRECPMCRSVGPYVPLWLGCEAGFYVDAGPPTHAFSPCGHVCSEKTTAYWSQIPLPHGTHTFHAACPFCAHQLAGEQGYIRLIFQGPLD
# modifications: FLAG tag
# notes: murine Pellino-1-FLAG, N-terminal 180 amino acids deleted
# B9: 1–350: murine Pellino-1, only amino acids 1–350 present (protein, UniProt Q8C669 1-350, looked up, fragment)
# chain: MFSPDQENHPSKAPVKYGELIVLGYNGSLPNGDRGRRKSRFALFKRPKANGVKPSTVHIACTPQAAKAISNKDQHSISYTLSRAQTVVVEYTHDSNTDMFQIGRSTESPIDFVVTDTVPGSQSNSDTQSVQSTISRFACRIICERSPPFTARIYAAGFDSSKNIFLGEKAAKWKTSDGQMDGLTTNGVLVMHPRNGFTEDSKPGIWREISVCGNVFSLRETRSAQQRGKMVEIETNQLQDGSLIDLCGATLLWRTAEGLSHTPTVKHLEALRQEINAARPQCPVGFNTLAFPSMKRKDVVDEKQPWVYLNCGHVHGYHNWGNKEERDGKDRECPMCRSVGPYVPLWLGCE
# B10: dN99-FLAG: murine Pellino-1-FLAG, N-terminal 99 amino acids deleted (protein, UniProt Q8C669 100-418, looked up, fragment)
# chain: FQIGRSTESPIDFVVTDTVPGSQSNSDTQSVQSTISRFACRIICERSPPFTARIYAAGFDSSKNIFLGEKAAKWKTSDGQMDGLTTNGVLVMHPRNGFTEDSKPGIWREISVCGNVFSLRETRSAQQRGKMVEIETNQLQDGSLIDLCGATLLWRTAEGLSHTPTVKHLEALRQEINAARPQCPVGFNTLAFPSMKRKDVVDEKQPWVYLNCGHVHGYHNWGNKEERDGKDRECPMCRSVGPYVPLWLGCEAGFYVDAGPPTHAFSPCGHVCSEKTTAYWSQIPLPHGTHTFHAACPFCAHQLAGEQGYIRLIFQGPLD
# modifications: FLAG tag
# notes: murine Pellino-1-FLAG, N-terminal 99 amino acids deleted
# Assays:
# [1] = tested on: Pellino-1 Cleavage and Relocation; test: Effect of protease and other inhibitors on PMA-induced Pellino-1 cleavage and relocation in COS7 cells; format: cell-based, monkey; settings: for Effect on Pellino-1 Cleavage and Relocation: COS7 cells treated with PMA
# Description: In an effort to determine which protease might be involved in the regulation of Pellino-1 cleavage, COS7 cells transfected with a Pellino-1-expressing construct were treated with PMA together with inhibitors of different classes of proteinases as shown in Table 3 below.
# [2] = tested on: NF-kB-dependent reporter gene; test: NF-kB-dependent reporter gene (luciferase) assay in transfected COS cells; format: cell-based, monkey; settings: for Effect on Reporter Gene: NF-kB-dependent reporter gene activity, form of murine Pellino-1 expressed in COS cells
# Excerpt: The murine Pellino-1 coding sequence DNA was fused, in frame at the 3′ end, to DNA encoding the FLAG epitope, followed by an in-frame stop codon. This construct was cloned into the mammalian expression vector pDC304 (identical to pDC302, described in U.S. Pat. No. 5,599,905, issued Feb. 4, 1997, except that the early splice region, consisting of splice donor and acceptor sites of the SV40 viral element, has been removed); and transfected into an IL-1-responsive line of COS-7 cells by the DEAE-dextran method.
# In order to assay the effect of the Pellino-1-FLAG polypeptide and other forms of Pellino polypeptides on reporter gene activity, a method essentially as described in Born et al., 1998, J. Biol. Cheni. 273: 29445–29450 (which is incorporated by reference herein) can be used. As one example of this method, Cos7 cells were transiently transfected by the DEAE-dextran method as described (Cosman et al., 1984, Nature 312: 768–771, which is incorporated by reference herein), using 150 ng of the Pellino polypeptide expression construct and 700 ng of the reporter plasmid per 45,000 cells. Two days post-transfection, cells were stimulated with 10 ng/ml IL-1 or 40 ng/ml IL-18 (PeproTech, Inc.) for 4 hours. Cells were lysed and luciferase activity assessed using Reporter Lysis Buffer and Luciferase Assay Reagent (Promega Corp.). IL-8 promoter-reporter and NFkB-dependent reporter constructs may be used as reporter plasmids. Alternatively, the effect of Pellino polypeptide expression may be assayed in COS-1 cells. In an alternative preferred method, COS7 cells were grown in 12-well dishes as described above. The cells were transiently transfected with Pellino test plasmid, 50 ng of reporter plasmid DNA, and empty vector, as required, to a total of 1 micrograms of total DNA per well. After 24 hours, stimulating agents were added in a small amount (less than 0.5% final volume) of medium or dimethyl sulfoxide, and the cells were re-incubated for 5 hours. Cells were lysed in luciferase Reporter Lysis Buffer (Promega, Madison Wis., 0.25 ml per well) and luciferase activity was measured in a EG & G/Berthold luminometer after addition of Luciferase Assay Reagent (Promega) according to the supplier's instructions. All results were normalized to total protein content of the lysates as measured using the micro-BCA assay (Pierce, Rockford, Ill).
Molecule,Effect on Reporter Gene [2],further results
CCCC[C@@H](C=O)NC(=O)[C@H](CC(C)C)NC(=O)[C@H](CC(C)C)NC(C)=O [ALLN] (Ac-Leu-Leu-[Nle]-aldehyde),,Effect on Pellino-1 Cleavage and Relocation ([1]; inhibitor 20 microM): none
C[C@@H]1C[C@@H]([C@H](O)CC2CC(=O)NC(=O)C2)C(=O)[C@@H](C)C1 [Cycloheximide],,Effect on Pellino-1 Cleavage and Relocation ([1]; inhibitor 40 microM): inhibition; PMA-induced Pellino-1 cleavage (and relocation) ([1]; treatment of FLAG-Pellino-1-transfected COS7 cells with the inhibitor): largely prevented; also recorded: completely prevented
CC(=O)N[C@@H](CSC(=O)[C@]1([C@@H](O)C(C)C)NC(=O)[C@H](C)[C@@H]1O)C(=O)O [Lactacystin],,Effect on Pellino-1 Cleavage and Relocation ([1]; inhibitor 20 microM): none
CC(C)C[C@@H](C=O)NC(=O)[C@H](CC(C)C)NC(=O)[C@H](CC(C)C)NC(=O)OCc1ccccc1 [MG132] (Cbz-Leu-Leu-Leu-aldehyde),,Effect on Pellino-1 Cleavage and Relocation ([1]; inhibitor 10 microM): none
Cc1ccc(S(=O)(=O)N[C@@H](Cc2ccccc2)C(=O)CCl)cc1 [TPCK],,Effect on Pellino-1 Cleavage and Relocation ([1]; inhibitor 20 microM): inhibition
COC(=O)CC[C@H](NC(=O)[C@H](CC(=O)OC)NC(=O)OCc1ccccc1)C(=O)N[C@H](C(=O)N[C@@H](CC(=O)OC)C(=O)CF)C(C)C [Z-DEVD-FMK],,Effect on Pellino-1 Cleavage and Relocation ([1]; inhibitor 20 microM): none
COC(=O)C[C@H](NC(=O)[C@H](C)NC(=O)[C@@H](NC(=O)OCc1ccccc1)C(C)C)C(=O)CF [Z-VAD-FMK] (Cbz-Val-Ala-Asp(OMe)-CH2F),,Effect on Pellino-1 Cleavage and Relocation ([1]; inhibitor 20 microM): none
B1,,NFkB-dependent reporter gene activity ([2]; COS cells transfected with high concentrations of expressing construct): inhibitory effect
B2,inactive,
B3,Stimulatory,
B4,Slightly,
B5,Stimulatory,
B6,Inhibitory,
B7,inactive,
B8,inactive,
B9,inactive,
B10,Inhibitory,
